Results as given in publication PMC4522657, “Identification of a DYRK1A Inhibitor that Induces Degradation of the Target Kinase using Co-chaperone CDC37 fused with Luciferase nanoKAZ” (Scientific Reports, 2015).

What was measured:
HSP90β (nanoKAZ-HSP90β) = HSP90β (nanoKAZ-HSP90β) (UniProt P08238); test: anti-FLAG plate capture, luciferase-fusion luminescence; conditions: reference: wild type
CDC37 (CDC37-nanoKAZ) = CDC37 (CDC37-nanoKAZ) (UniProt Q16543); test: as above; conditions: reference: wild type

With “DYRK1A (from UniProt Q13627) K188R kinase-dead (no autophosphorylation)” the fold change (HSP90β (nanoKAZ-HSP90β)) was 10 and the fold change (CDC37 (CDC37-nanoKAZ)) was 17.

In the case of DYRK1A (from UniProt Q13627) Y111F, the fold change (CDC37 (CDC37-nanoKAZ); sites Y111) is reported as 1.4.

“DYRK1A (from UniProt Q13627) Y145F/Y147F” was tested, and the fold change (CDC37 (CDC37-nanoKAZ); sites Y145,Y147) was 2.4.

For DYRK1A (from UniProt Q13627) Y159F, the fold change (CDC37 (CDC37-nanoKAZ); sites Y159) was 8.4.

Substance “DYRK1A (from UniProt Q13627) Y319F/Y321F” has a fold change (HSP90β (nanoKAZ-HSP90β); sites Y319,Y321) of 3.8 and a fold change (CDC37 (CDC37-nanoKAZ); sites Y319,Y321) of 8.
